Test results: US20190338009A1 (ZEALAND PHARMA A S, published 2019)
Square brackets hold non-standard residues; d marks the D form. Aib = CC(C)(N)C(=O)O

T1: human GLP-2 receptor (hGLP2-R) (human, UniProt O95838 1-553)
T1 sequence (looked up): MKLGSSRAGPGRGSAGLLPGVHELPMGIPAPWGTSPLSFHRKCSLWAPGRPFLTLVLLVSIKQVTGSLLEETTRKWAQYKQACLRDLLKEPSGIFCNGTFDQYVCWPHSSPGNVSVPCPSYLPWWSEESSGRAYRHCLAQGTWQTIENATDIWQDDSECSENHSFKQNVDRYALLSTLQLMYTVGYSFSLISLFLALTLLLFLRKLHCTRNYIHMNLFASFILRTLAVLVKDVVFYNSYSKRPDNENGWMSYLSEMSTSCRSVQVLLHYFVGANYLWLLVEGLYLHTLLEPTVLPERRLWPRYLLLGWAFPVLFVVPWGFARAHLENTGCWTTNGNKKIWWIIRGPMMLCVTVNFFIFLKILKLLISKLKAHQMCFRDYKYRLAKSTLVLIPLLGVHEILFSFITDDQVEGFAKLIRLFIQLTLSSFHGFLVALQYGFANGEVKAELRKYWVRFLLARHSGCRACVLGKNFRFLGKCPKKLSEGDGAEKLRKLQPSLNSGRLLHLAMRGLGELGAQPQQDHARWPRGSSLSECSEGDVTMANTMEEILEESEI

B1: Compound 2 (peptide)
peptide: H-H[Aib]EGTFSSELATILDEQAARDFIAWLIAHKITD-OH
SMILES: CC[C@H](C)[C@H](NC(=O)[C@H](CC(C)C)NC(=O)[C@H](Cc1c[nH]c2ccccc12)NC(=O)[C@H](C)NC(=O)[C@@H](NC(=O)[C@H](Cc1ccccc1)NC(=O)[C@H](CC(=O)O)NC(=O)[C@H](CCCNC(=N)N)NC(=O)[C@H](C)NC(=O)[C@H](C)NC(=O)[C@H](CCC(N)=O)NC(=O)[C@H](CCC(=O)O)NC(=O)[C@H](CC(=O)O)NC(=O)[C@H](CC(C)C)NC(=O)[C@@H](NC(=O)[C@@H](NC(=O)[C@H](C)NC(=O)[C@H](CC(C)C)NC(=O)[C@H](CCC(=O)O)NC(=O)[C@H](CO)NC(=O)[C@H](CO)NC(=O)[C@H](Cc1ccccc1)NC(=O)[C@@H](NC(=O)CNC(=O)[C@H](CCC(=O)O)NC(=O)C(C)(C)NC(=O)[C@@H](N)Cc1c[nH]cn1)[C@@H](C)O)[C@@H](C)O)[C@@H](C)CC)[C@@H](C)CC)C(=O)N[C@@H](C)C(=O)N[C@@H](Cc1c[nH]cn1)C(=O)N[C@@H](CCCCN)C(=O)N[C@H](C(=O)N[C@H](C(=O)N[C@@H](CC(=O)O)C(=O)O)[C@@H](C)O)[C@@H](C)CC
B2: Compound 34 (peptide)
peptide: H-H[Aib]EGTFTSELATILDEQAARDFISWLIAHKITD-OH
SMILES: CC[C@H](C)[C@H](NC(=O)[C@H](CC(C)C)NC(=O)[C@H](Cc1c[nH]c2ccccc12)NC(=O)[C@H](CO)NC(=O)[C@@H](NC(=O)[C@H](Cc1ccccc1)NC(=O)[C@H](CC(=O)O)NC(=O)[C@H](CCCNC(=N)N)NC(=O)[C@H](C)NC(=O)[C@H](C)NC(=O)[C@H](CCC(N)=O)NC(=O)[C@H](CCC(=O)O)NC(=O)[C@H](CC(=O)O)NC(=O)[C@H](CC(C)C)NC(=O)[C@@H](NC(=O)[C@@H](NC(=O)[C@H](C)NC(=O)[C@H](CC(C)C)NC(=O)[C@H](CCC(=O)O)NC(=O)[C@H](CO)NC(=O)[C@@H](NC(=O)[C@H](Cc1ccccc1)NC(=O)[C@@H](NC(=O)CNC(=O)[C@H](CCC(=O)O)NC(=O)C(C)(C)NC(=O)[C@@H](N)Cc1c[nH]cn1)[C@@H](C)O)[C@@H](C)O)[C@@H](C)O)[C@@H](C)CC)[C@@H](C)CC)C(=O)N[C@@H](C)C(=O)N[C@@H](Cc1c[nH]cn1)C(=O)N[C@@H](CCCCN)C(=O)N[C@H](C(=O)N[C@H](C(=O)N[C@@H](CC(=O)O)C(=O)O)[C@@H](C)O)[C@@H](C)CC
B3: Compound 31 (peptide)
peptide: H-H[Aib]EGSFTSELATILDGKAARDFIAWLIAHKITD-OH
SMILES: CC[C@H](C)[C@H](NC(=O)[C@H](CC(C)C)NC(=O)[C@H](Cc1c[nH]c2ccccc12)NC(=O)[C@H](C)NC(=O)[C@@H](NC(=O)[C@H](Cc1ccccc1)NC(=O)[C@H](CC(=O)O)NC(=O)[C@H](CCCNC(=N)N)NC(=O)[C@H](C)NC(=O)[C@H](C)NC(=O)[C@H](CCCCN)NC(=O)CNC(=O)[C@H](CC(=O)O)NC(=O)[C@H](CC(C)C)NC(=O)[C@@H](NC(=O)[C@@H](NC(=O)[C@H](C)NC(=O)[C@H](CC(C)C)NC(=O)[C@H](CCC(=O)O)NC(=O)[C@H](CO)NC(=O)[C@@H](NC(=O)[C@H](Cc1ccccc1)NC(=O)[C@H](CO)NC(=O)CNC(=O)[C@H](CCC(=O)O)NC(=O)C(C)(C)NC(=O)[C@@H](N)Cc1c[nH]cn1)[C@@H](C)O)[C@@H](C)O)[C@@H](C)CC)[C@@H](C)CC)C(=O)N[C@@H](C)C(=O)N[C@@H](Cc1c[nH]cn1)C(=O)N[C@@H](CCCCN)C(=O)N[C@H](C(=O)N[C@H](C(=O)N[C@@H](CC(=O)O)C(=O)O)[C@@H](C)O)[C@@H](C)CC
B4: Compound 33 (peptide)
peptide: H-H[Aib]EGTFTSELATILDEQAARDFINWLIAHKITD-OH
SMILES: CC[C@H](C)[C@H](NC(=O)[C@H](CC(C)C)NC(=O)[C@H](Cc1c[nH]c2ccccc12)NC(=O)[C@H](CC(N)=O)NC(=O)[C@@H](NC(=O)[C@H](Cc1ccccc1)NC(=O)[C@H](CC(=O)O)NC(=O)[C@H](CCCNC(=N)N)NC(=O)[C@H](C)NC(=O)[C@H](C)NC(=O)[C@H](CCC(N)=O)NC(=O)[C@H](CCC(=O)O)NC(=O)[C@H](CC(=O)O)NC(=O)[C@H](CC(C)C)NC(=O)[C@@H](NC(=O)[C@@H](NC(=O)[C@H](C)NC(=O)[C@H](CC(C)C)NC(=O)[C@H](CCC(=O)O)NC(=O)[C@H](CO)NC(=O)[C@@H](NC(=O)[C@H](Cc1ccccc1)NC(=O)[C@@H](NC(=O)CNC(=O)[C@H](CCC(=O)O)NC(=O)C(C)(C)NC(=O)[C@@H](N)Cc1c[nH]cn1)[C@@H](C)O)[C@@H](C)O)[C@@H](C)O)[C@@H](C)CC)[C@@H](C)CC)C(=O)N[C@@H](C)C(=O)N[C@@H](Cc1c[nH]cn1)C(=O)N[C@@H](CCCCN)C(=O)N[C@H](C(=O)N[C@H](C(=O)N[C@@H](CC(=O)O)C(=O)O)[C@@H](C)O)[C@@H](C)CC
B5: Compound 32 (peptide)
peptide: H-H[Aib]EGTFSSELATILDGKAARDFIAWLIAHKITD-OH
SMILES: CC[C@H](C)[C@H](NC(=O)[C@H](CC(C)C)NC(=O)[C@H](Cc1c[nH]c2ccccc12)NC(=O)[C@H](C)NC(=O)[C@@H](NC(=O)[C@H](Cc1ccccc1)NC(=O)[C@H](CC(=O)O)NC(=O)[C@H](CCCNC(=N)N)NC(=O)[C@H](C)NC(=O)[C@H](C)NC(=O)[C@H](CCCCN)NC(=O)CNC(=O)[C@H](CC(=O)O)NC(=O)[C@H](CC(C)C)NC(=O)[C@@H](NC(=O)[C@@H](NC(=O)[C@H](C)NC(=O)[C@H](CC(C)C)NC(=O)[C@H](CCC(=O)O)NC(=O)[C@H](CO)NC(=O)[C@H](CO)NC(=O)[C@H](Cc1ccccc1)NC(=O)[C@@H](NC(=O)CNC(=O)[C@H](CCC(=O)O)NC(=O)C(C)(C)NC(=O)[C@@H](N)Cc1c[nH]cn1)[C@@H](C)O)[C@@H](C)O)[C@@H](C)CC)[C@@H](C)CC)C(=O)N[C@@H](C)C(=O)N[C@@H](Cc1c[nH]cn1)C(=O)N[C@@H](CCCCN)C(=O)N[C@H](C(=O)N[C@H](C(=O)N[C@@H](CC(=O)O)C(=O)O)[C@@H](C)O)[C@@H](C)CC
B6: Compound 30 (peptide)
peptide: H-H[Aib]EGSFTSELATILDEQAARDFIAWLYRHKITD-OH
SMILES: CC[C@H](C)[C@H](NC(=O)[C@H](Cc1ccccc1)NC(=O)[C@H](CC(=O)O)NC(=O)[C@H](CCCNC(=N)N)NC(=O)[C@H](C)NC(=O)[C@H](C)NC(=O)[C@H](CCC(N)=O)NC(=O)[C@H](CCC(=O)O)NC(=O)[C@H](CC(=O)O)NC(=O)[C@H](CC(C)C)NC(=O)[C@@H](NC(=O)[C@@H](NC(=O)[C@H](C)NC(=O)[C@H](CC(C)C)NC(=O)[C@H](CCC(=O)O)NC(=O)[C@H](CO)NC(=O)[C@@H](NC(=O)[C@H](Cc1ccccc1)NC(=O)[C@H](CO)NC(=O)CNC(=O)[C@H](CCC(=O)O)NC(=O)C(C)(C)NC(=O)[C@@H](N)Cc1c[nH]cn1)[C@@H](C)O)[C@@H](C)O)[C@@H](C)CC)C(=O)N[C@@H](C)C(=O)N[C@@H](Cc1c[nH]c2ccccc12)C(=O)N[C@@H](CC(C)C)C(=O)N[C@@H](Cc1ccc(O)cc1)C(=O)N[C@@H](CCCNC(=N)N)C(=O)N[C@@H](Cc1c[nH]cn1)C(=O)N[C@@H](CCCCN)C(=O)N[C@H](C(=O)N[C@H](C(=O)N[C@@H](CC(=O)O)C(=O)O)[C@@H](C)O)[C@@H](C)CC
B7: Compound 29 (peptide)
peptide: H-H[Aib]EGTFTDELATILDEQAARDFIAWLQAQKITD-OH
SMILES: CC[C@H](C)[C@H](NC(=O)[C@H](Cc1ccccc1)NC(=O)[C@H](CC(=O)O)NC(=O)[C@H](CCCNC(=N)N)NC(=O)[C@H](C)NC(=O)[C@H](C)NC(=O)[C@H](CCC(N)=O)NC(=O)[C@H](CCC(=O)O)NC(=O)[C@H](CC(=O)O)NC(=O)[C@H](CC(C)C)NC(=O)[C@@H](NC(=O)[C@@H](NC(=O)[C@H](C)NC(=O)[C@H](CC(C)C)NC(=O)[C@H](CCC(=O)O)NC(=O)[C@H](CC(=O)O)NC(=O)[C@@H](NC(=O)[C@H](Cc1ccccc1)NC(=O)[C@@H](NC(=O)CNC(=O)[C@H](CCC(=O)O)NC(=O)C(C)(C)NC(=O)[C@@H](N)Cc1c[nH]cn1)[C@@H](C)O)[C@@H](C)O)[C@@H](C)O)[C@@H](C)CC)C(=O)N[C@@H](C)C(=O)N[C@@H](Cc1c[nH]c2ccccc12)C(=O)N[C@@H](CC(C)C)C(=O)N[C@@H](CCC(N)=O)C(=O)N[C@@H](C)C(=O)N[C@@H](CCC(N)=O)C(=O)N[C@@H](CCCCN)C(=O)N[C@H](C(=O)N[C@H](C(=O)N[C@@H](CC(=O)O)C(=O)O)[C@@H](C)O)[C@@H](C)CC

Key:
[1] = biological target: T1, human GLP-2 receptor (hGLP2-R); test: cell-based or functional assay
[2] = biological target: human glucagon-like peptide 1 receptor (GLP-1R) (human, UniProt P43220 24-463); test: cell-based or functional assay

Row | Binder | EC50 GLP-2 (nM); cAMP AlphaScreen, HEK293 cells expressing human GLP-2R [1] [nM] | EC50 GLP-1 (nM); cAMP AlphaScreen, HEK293 cells expressing human GLP-1R [2] [nM]
1 | B1 | 0.034 | 0.046
2 | B2 | 0.049 | 0.005
3 | B3 | 0.078 | 0.02
4 | B4 | 0.041 | 0.004
5 | B5 | 0.15 | 0.038
6 | B6 | 0.034 | 0.1
7 | B7 | 0.11 | 0.044
